Results published in the supplement of paper PMC12764529.
± gives the half width of the 95% confidence interval.

Assays:
[1] = folding stability dG unfold from chymotrypsin proteolysis; higher = more stable
How it was run: (§1)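 Designed mini-proteins with no cysteine and under 80 residues were kept only if AlphaFold2 dimer inter-PAE was above 15. In a PA-tagged cDNA display construct, they were digested with trypsin and chymotrypsin and then sequenced. K50 was inferred by Bayesian fitting of counts, and unfolding free energy was derived per protease or combined against a sequence-predicted unfolded-state K50 and a shared folded-state K50.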

[2] = folding stability dG unfold (combined trypsin and chymotrypsin); higher = more stable
How it was run: as §1

[3] = folding stability dG unfold from trypsin proteolysis; higher = more stable
How it was run: as §1

Row | Sequence | folding stability dG unfold [1] [kcal/mol] | folding stability dG unfold [2] [kcal/mol] | folding stability dG unfold [3] [kcal/mol]
1 | SAGGSAGGKKKVKYYKIKEVKIEKDEDGNYTITVKVDGKTFTITIPKEKIKPGMKLKDIVIKIKSAGGSAGG [r6_255_TrROS_Hall] | 3.57 ± 0.038 | 3.16 ± 0.11 | 1.91 ± 0.041
2 | SAGGSAGGKKKYLVKITIKYVDKKTGKLVKEETITVEVSEEELEELLKKLPPGAEITKIEIYKLSAGGSAGG [r6_776_TrROS_Hall] | 3.58 ± 0.071 | 3.4 ± 0.071 | 2.96 ± 0.13
3 | SAGGSAGGKKLEELKEKLKKLKPKPELEVEIKIVMSKEEAEKLAKELEKLPNIKKVRVEILEPDSAGGSAGG [r6_284_TrROS_Hall] | -0.0934 ± 0.11 | 0.0502 ± 0.17 | -0.155 ± 0.069
4 | SAGGSAGGKKNNKPKPILVKIEIINKNGKKKVFTKEFKSLEEAKKFIEKALPKGYSAKIEIIPGSAGGSAGG [r6_289_TrMRF] | 3.36 ± 0.062 | 3.18 ± 0.29 | 2.25 ± 0.2
5 | SAGGSAGGKKPPKIKVIYIKADSPEALKKLKIKAKPGDTILIYVDGKLYRLTVIDGKIKIEELPSAGGSAGG [r6_550_TrROS_Hall] | 3.73 ± 0.065 | 3.35 ± 0.14 | 2.12 ± 0.089
6 | SAGGSAGGKKPVYEIEITTKDGSKLTIAVKEGEEVEIKITVNGKEISLEDITSIEIRPVELPEESAGGSAGG [r6_222_TrROS_Hall] | 1.84 ± 0.089 | 1.94 ± 0.098 | 1.99 ± 0.16
7 | SAGGSAGGKKTYRLEITIYNKDGKEIKKIEIEAETEEEALEAAKKLQEEAKKKGLKVEIKVEKVSAGGSAGG [r6_285_TrROS_Hall] | 4.7 ± 0.068 | 4.72 ± 0.15 | 4.2 ± 0.21
8 | SAGGSAGGKKVYPIPGATPNQFRELLDENKGTLKIYMPNGKQEEFPIKPGMEPIPGGPAWIERKSAGGSAGG [r6_304_TrROS] | -1.29 ± 0.85 | -0.871 ± 0.36 | -0.834 ± 0.41
9 | SAGGSAGGKLKINNEEIGPDKSFPLKKGKEIKVYKDYVKVFVIDPKTNKKKEYTIKLEDLKKLFSAGGSAGG [r6_940_TrMRF] | 1.39 ± 0.2 | 1.05 ± 0.18 | 0.437 ± 0.073
10 | SAGGSAGGKPDLLLEARTDLFGEEREAEVFYDPSPPVLTITLPDGTVITLPEEEVEIEKETPLISAGGSAGG [r6_185_JUSTAS] | -0.273 ± 0.065 | -0.243 ± 0.28 | -0.297 ± 0.12
11 | SAGGSAGGKPIWEFELEFPDGYKIRITYWPGYVRVEIHNPDGRQLEVNVPGKSPEDALDALLDASAGGSAGG [r6_459_TrROS] | 4.19 ± 0.19 | 3.88 ± 0.24 | 3.32 ± 0.22
12 | SAGGSAGGKPKKVKIKIEITYNKETGVVKIKIEVEVDGKTYTIEIEVKLKPGQTIEELLKKLLESAGGSAGG [r6_20_TrROS_Hall] | 4.75 ± 0.34 | 4.46 ± 0.54 | 2.84 ± 0.24
13 | SAGGSAGGKPKTYIILVIEDPENDKYLALLFDENGKLIGTAPFKSIDELLEKLPKNVKVIVLPASAGGSAGG [r6_492_TrMRF] | 4.47 ± 0.11 | 4.24 ± 0.1 | 3.6 ± 0.11
14 | SAGGSAGGKPKVVELELTTEDGSKVRVVFTEDSVYIYNEETGLLVKYNLKTGKFELKEVYPLEESAGGSAGG [r6_462_TrROS_Hall] | 3.24 ± 0.055 | 2.92 ± 0.28 | 2.15 ± 0.15
15 | SAGGSAGGKPTYYVAEVTYPGNLKATVVVEDKDNLTFVIPDTGEVWDLTDLDDIKITPVSADDPSAGGSAGG [r6_222_TrMRF] | 0.95 ± 0.14 | 0.8 ± 0.073 | 0.633 ± 0.033
16 | SAGGSAGGKPVTVEVDIVVKPGDTIEFPPGAKVEIVEKKEVEVNGKKYQVFKIKVTLPPGEEALSAGGSAGG [r6_454_TrROS_Hall] | 2.854 ± 0.026 | 2.72 ± 0.23 | 2.31 ± 0.12
17 | SAGGSAGGKSPEDRQRENMKPVPPIEVVEIRIPIPPGMPIDQAKNIASNLMEHLGVDYVRIEITSAGGSAGG [r6_517_TrROS] | -0.478 ± 0.21 | 0.297 ± 0.24 | 0.679 ± 0.038
18 | SAGGSAGGKVTVDPAKVKAILTLKDGSKLIVLEDGVLLYNPKTEKVTLVSLSDLKKLPEDAPVPSAGGSAGG [r6_889_TrMRF] | 1.85 ± 0.026 | 1.74 ± 0.054 | 1.61 ± 0.042
19 | SAGGSAGGKWIHINPNSYNIKIQDPGSGKEEEIQFDSPEELIDEIKKQFPGVPVEIHPNGWFKISAGGSAGG [r6_288_TrROS] | 0.563 ± 0.11 | 0.521 ± 0.091 | 0.385 ± 0.022
20 | SAGGSAGGKYQEFEYMIMFPDGGMFRVKIEYSPNPGQVKIKIEFPGGEREITIPPGAPITIMPMSAGGSAGG [r6_927_TrROS] | 2.41 ± 0.054 | 2.74 ± 0.23 | 3.17 ± 0.23
21 | SAGGSAGGLEIVLPREELEELIRRGEIDEVEIERSEDDLVRARPIIRPPPPLPPEVGALLRALASAGGSAGG [r6_278_TrMRF] | 1.91 ± 0.088 | 1.56 ± 0.37 | 0.891 ± 0.2
22 | SAGGSAGGLGWGSFKLPFEFWDPANGMPMRNSINIMVIVIPPPPPKVEVEEDPDNGKKKVTYDDSAGGSAGG [r6_926_TrROS] | 3.31 ± 0.084 | 2.95 ± 0.46 | 2.67 ± 0.1
23 | SAGGSAGGLHPDEEFVVLFRIDVRARPVSPNAHPELKKKFPNAVIVEAKIDVLILPKEKVKELFSAGGSAGG [r6_830_TrMRF] | 3.44 ± 0.082 | 3.18 ± 0.19 | 2.84 ± 0.1
24 | SAGGSAGGLPEGDIYRIRVTLPNGNTFTITFPVKSVEQAKDFAKSFLESLGLPDVKVDIEPVPVSAGGSAGG [r6_844_TrROS] | 4.2 ± 0.044 | 4 ± 0.074 | 3.53 ± 0.065
25 | SAGGSAGGMEEIEIEINGKKAKIYRLPGDEDLFLIEVDGELYLVKVKKKDGKWEIVEVKKLDELSAGGSAGG [r6_915_TrROS_Hall] | 4.25 ± 0.091 | 4.13 ± 0.16 | 4.17 ± 0.29
26 | SAGGSAGGMEEIVLPIPEEVAKELIASGTVTKTQTEGNRTILTKTPPSGGSTKITVVLPPSYPSSAGGSAGG [r6_654_JUSTAS] | 1.24 ± 0.1 | 1.35 ± 0.17 | 1.2 ± 0.095
